Experimental data taken from paper PMC7375243, “Structural Basis of Human Helicase DDX21 in RNA Binding, Unwinding, and Antiviral Signal Activation” (Advanced Science, 2020).

Key:
Settings in all cases: protein: recombinant; tags: N-terminal His-SUMO, removed by ULP1; label: FAM; single strand
[1] = molecular target: T1, DDX21 core S375L/A376E (human, UniProt Q9NR30 188-563, S375L;A376E); assay: UV crosslinking; about half of activity; MST: 50 mM Tris pH 7.5, 50 mM KCl, 2 mM MgCl2, 1 mM TCEP, 0.01% NP-40, 0.05 mg/mL BSA, 2 mM AMPPNP, 50 nM FAM-RNA; temperature not given; crosslinking buffer not in material
T1 sequence: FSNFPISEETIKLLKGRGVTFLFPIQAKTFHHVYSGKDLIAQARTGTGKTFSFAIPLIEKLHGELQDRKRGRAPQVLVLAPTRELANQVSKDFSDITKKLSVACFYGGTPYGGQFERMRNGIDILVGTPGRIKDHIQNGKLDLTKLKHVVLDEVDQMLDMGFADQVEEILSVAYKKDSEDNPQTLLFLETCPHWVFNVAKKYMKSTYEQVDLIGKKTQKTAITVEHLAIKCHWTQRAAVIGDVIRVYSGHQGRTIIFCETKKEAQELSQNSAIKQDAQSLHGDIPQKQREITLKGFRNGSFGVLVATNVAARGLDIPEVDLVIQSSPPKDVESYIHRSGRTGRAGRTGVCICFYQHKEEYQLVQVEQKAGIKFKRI

[2] = molecular target: T2, DDX21 helicase core (D1D2, DDX21-delNC) (human, UniProt Q9NR30 188-563); assay: MST; 2 mM AMPPNP, 2 mM MgCl2; value only in figure; MST: 50 mM Tris pH 7.5, 50 mM KCl, 2 mM MgCl2, 1 mM TCEP, 0.01% NP-40, 0.05 mg/mL BSA, 2 mM AMPPNP, 50 nM FAM-RNA; temperature not given; crosslinking buffer not in material
T2 sequence: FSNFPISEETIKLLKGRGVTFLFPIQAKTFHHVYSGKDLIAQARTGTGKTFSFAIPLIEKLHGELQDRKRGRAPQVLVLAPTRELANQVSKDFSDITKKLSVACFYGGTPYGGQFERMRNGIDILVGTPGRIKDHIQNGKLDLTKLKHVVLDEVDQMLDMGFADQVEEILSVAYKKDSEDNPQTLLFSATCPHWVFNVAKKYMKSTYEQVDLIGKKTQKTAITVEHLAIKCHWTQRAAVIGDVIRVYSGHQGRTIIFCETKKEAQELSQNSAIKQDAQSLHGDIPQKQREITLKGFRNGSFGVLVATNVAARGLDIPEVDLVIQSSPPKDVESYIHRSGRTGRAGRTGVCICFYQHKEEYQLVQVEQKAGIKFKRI

[3] = molecular target: T3, DDX21 core del-loop (human, UniProt Q9NR30 188-563, del401-405); assay: UV crosslinking; retains more than half; MST: 50 mM Tris pH 7.5, 50 mM KCl, 2 mM MgCl2, 1 mM TCEP, 0.01% NP-40, 0.05 mg/mL BSA, 2 mM AMPPNP, 50 nM FAM-RNA; temperature not given; crosslinking buffer not in material
T3 sequence: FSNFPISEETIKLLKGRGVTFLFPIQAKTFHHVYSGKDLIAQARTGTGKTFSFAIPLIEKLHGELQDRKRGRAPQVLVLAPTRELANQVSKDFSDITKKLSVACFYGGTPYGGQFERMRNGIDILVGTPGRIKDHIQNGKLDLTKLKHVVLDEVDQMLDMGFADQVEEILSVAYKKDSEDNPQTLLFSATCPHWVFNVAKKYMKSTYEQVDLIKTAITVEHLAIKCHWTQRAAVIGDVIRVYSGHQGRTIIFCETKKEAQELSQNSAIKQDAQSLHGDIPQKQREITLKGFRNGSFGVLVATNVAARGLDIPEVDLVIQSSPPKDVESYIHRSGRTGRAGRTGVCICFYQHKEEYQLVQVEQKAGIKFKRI

[4] = molecular target: T4, DDX21 core 7A (human, UniProt Q9NR30 188-563, R270A;T315A;R318A;D321A;Q352A;R476A;T494A); assay: UV crosslinking; comparable to WT; MST: 50 mM Tris pH 7.5, 50 mM KCl, 2 mM MgCl2, 1 mM TCEP, 0.01% NP-40, 0.05 mg/mL BSA, 2 mM AMPPNP, 50 nM FAM-RNA; temperature not given; crosslinking buffer not in material
T4 sequence: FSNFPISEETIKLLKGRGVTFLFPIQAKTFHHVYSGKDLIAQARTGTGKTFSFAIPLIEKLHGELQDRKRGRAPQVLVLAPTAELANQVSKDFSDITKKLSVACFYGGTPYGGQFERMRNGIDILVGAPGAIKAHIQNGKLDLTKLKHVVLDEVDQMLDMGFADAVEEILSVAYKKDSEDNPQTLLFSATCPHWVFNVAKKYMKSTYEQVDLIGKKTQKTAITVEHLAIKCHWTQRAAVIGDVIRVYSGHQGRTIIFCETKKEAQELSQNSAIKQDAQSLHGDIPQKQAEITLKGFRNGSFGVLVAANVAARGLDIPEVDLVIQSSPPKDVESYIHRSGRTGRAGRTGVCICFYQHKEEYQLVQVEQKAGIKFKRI

[5] = molecular target: T5, DDX21 core 8A (human, UniProt Q9NR30 188-563, R255A;R270A;T315A;R318A;D321A;Q352A;R476A;T494A); assay: as above
T5 sequence: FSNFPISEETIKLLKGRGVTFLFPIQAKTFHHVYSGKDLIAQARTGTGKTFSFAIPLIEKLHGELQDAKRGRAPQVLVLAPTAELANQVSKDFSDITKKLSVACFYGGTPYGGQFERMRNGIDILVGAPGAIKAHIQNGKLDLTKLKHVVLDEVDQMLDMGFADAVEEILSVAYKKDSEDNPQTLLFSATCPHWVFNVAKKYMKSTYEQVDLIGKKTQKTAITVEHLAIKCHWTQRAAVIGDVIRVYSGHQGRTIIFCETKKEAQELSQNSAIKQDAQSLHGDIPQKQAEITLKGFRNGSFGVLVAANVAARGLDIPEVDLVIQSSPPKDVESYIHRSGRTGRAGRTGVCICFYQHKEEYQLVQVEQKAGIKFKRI

For UUUUUUUUUUUUUUU (ssRNA) [FAM-U15], the binding signal [1] was ~50 % of WT, the binding result [2] was “binds” and the binding signal [3] was > 50 % of WT. UUUUUUUUUUUUUUU (ssRNA) [FAM-U15]: binds [4]; binds [5].
